# Experiment: soluble on expression in E. coli; label from the status in PepcDB or PDB records
row,Sequence,soluble on expression in E. coli
1,MLYEKFEYNINNLIGNFGLSKIAIAVSGGSDSISLLYLANIWARKNNIELFVISVDHNLRPQSKQENYYIHTISSNLNRKYYNLSFDHQNNFSNLQERAREGRYDLMTNLCLELDVLVLLTAHHEDDYVENFCLRLERNSGIFGLSSSNIHWYNNIQIIRPLYNIPKSELVEYLVNHKIKWFEDESNLSDKYRRNIIRQKLFKEENYIKAEISLQQLKTNKLIEDELKPALISAIAEAVKIFEYGFTFLDLVKFDKFLNEVKAQIINFLLIMISGQSRSARFYSIAHILKLISQDINFKNTVHGCVIKRIQNELLIYREFGKKLPKSKILLDKSVIWDNRFCITKNQKTPDCVITYLSLADYKAIKKQLDLKHLKNLSCKNHNAILFTLPIIKILEKVIAIPHISYYDNDVWNFEVSFAPNFVSRFTHFC,not soluble
2,MGSDKIHHHHHHMGIMENPLIKPAALENTHQDGPHPQAEEPYYLPFGDEVSIFTQCHRRHLAVMLKGPTGCGKTRFVEHMAWRMKRPLIIVSCHDDLTAADLVGRFLIRDNATIWQDGPLTRAVRVGAICYLDEVVEARQDAVVVIHPLTDYRRVLPIDKTGELIEATPGFQLVISYNPGYQHVTKDLKPSTRQRFVALDFDFPPPEREAEIVIHESGAQPAVAYDLVALGGRIRGLADRGLAEVPSTRLLVATARLIANGIPPRLACHVALVSPLSDDPALVAAMRDLVDATLLD,not soluble
3,MANAFGLSLGTALRRDPAEGPVRPQRPLGRLIWLHAPTRDSARPMAELGRRIILDEGFPVLLTTHVPVSSGGILIVQPPPPDTPAAVAAFLDHWRPDAAFMAEGELRPSLINSAFDRNVPLALVDGAAPRILPGRESWWPGQMRNLLAKFRHIFTLDEAAARAFRKAGSSSHVTQVAGRLEEGSLALPCTEAERAALARLLAPRQVWLAAGLPIEEEAAAIAAHHAALKLAHRMLLIVVPQEPDRAAAFAARCEAEGWKVARRAADEEPDADTEVFVADGMAELGLWYRLAPVTWLGGSLSVGCVLDPLEAASLGSALIHGPHFGPHGATLARLSAARASLPVASARGLAEALADLLAPDRVARLAHAGWAVASEGTEVTDRMVALAGRLVEREALEHHHHHH,not soluble
4,KRTWWLWRQTISSSRGNKVVFEVNADSVRYKSGKIDRSLAWSEIDQLEQTDLGFILHLGKQRQYISKSCLNEEVIAFMVEQHAGSKAS,not soluble
5,NEAPIDMHGGKSAKIERQSVENSAQKENSKSAILERLKRLREYSKDHLKAFQRLQVQDFDGRIKPLDTISIEYIHKILKKDDFQGLNAMQVLLGIMFFPNDWRSIKMIYTSTKALRKLIGTPLDESRIAFRDAFDSRGYKLKNLVEEVNQKSPNARNELDKDVLKVDERINLVYTLFSAQFLRIFPSDKTTAWLSPIEAISSPNKEISSVATEFLKNIFSGFDDALKTNQWDKVEKTLKDLSIYQKEHAKNLYLSSSKVDSEIFLNHTNFFNRLT,not soluble
6,MHHHHHHGMASMTARPLSELVERGWAAALEPVADQVAHMGQFLRAEIAAGRRYLPAGSNVLRAFTFPFDNVRVLIVGQDPYPTPGHAVGLSFSVAPDVRPWPRSLANIFDEYTADLGYPLPSNGDLTPWAQRGVLLLNRVLTVRPSNPASHRGKGWEAVTECAIRALAARAAPLVAILWGRDASTLKPMLAAGNCVAIESPHPSPLSASRGFFGSRPFSRANELLVGMGAEPIDWRLP,soluble
7,MSLDMKEWEIFYNKIMEDFGFDKDKDVESAVILNNILENANTIPVDKLKDIIEGREVFIFGAGPSIKKHINILKELREINYKNPIIVADGACKAFLEENIIPDIIVSDLDGDLEALFECNRKGSIIVVHAHGDNIEKIKKYVPKLKNVVGSCQIPNYKELNLRNVINFGGFTDGDRCCFLAYHFKAKKLILGGMDFGIYITKYSRPNIKEDIAIGDEIKIKKLEYAKTLINYLKDKIEIEFLKEGHHHHHH,soluble
8,MAHHHHHHMTGWRQIVRCSICHLNRCAYPVTPALTDLKHLKHMWTLHGEAAPTADKQCLLLALAAEAGEQLAELNSRQAAAQAKAKEAQLAIAKHLGMLEMAVEASSYKIVDSTTPVNADSSANTAKLSLKIARGNNAGCSLTKAGEGNPFADDPLNEQNILNLKLTAATDVVKSLKETAISIRSASSNCPSDSTGKTGIKEALGSCNLGGSAEYEFTTAAATTGNAQSSVPVFKEESTTTNCGEVSGLSAEAMSPAQKLAKAICEAIKAKAGEGKTLRTATGETLSNRKTIQTFLRNCVPEFQKKN,not soluble
9,YPDDLVIGNLSRRGFLKGVGATGVLLVAANWGWRDALAAEKKAFGADAMPHGWVDNPKIYVSIDRDGTVGIVCNRSEMGQGVRTSLAMVVADELEADWSRVKVIQAPGDEARYGNQDTDGSRSMRHWFEPMRRCGAAARQMLEQAAANQWKVPLGECRAEQNKVLHAPSGRSLSFGELAEAAAGLEVPARDKLLLKKPEQFRYIGKDVARAIDGADIVNGRAGFGFDARFDDMLYAVVARPPVYGGKLKRYDAAAALKVPGVVKVIEIEGRPIPSEFQPLGGVAVVAQNTWAAIKGREALVVEWDAGVNGGYDSVAYRKQLEEAARKPGKVVRDSGDAAALFAKGGDIVEAEYYLPHLAQAPMEPPVSTAWYKDGACEVWAPTQAPQVTRERIAERLKLPFDKVTVNVTLLGGGFGRKSKPDFVLEAAILAKAFPGRHLRVQWTREDDLHFSYFHTVSVERLQAVLGADGLPQAWLHRSVAPSITALFGPDSKHQGAFELGMGLTNLPFAIPNVRLENPEAPAHTRVGWFRSVSNIPHAFAIQSFVGELAAKAGQDPKDYLLKLLGPARRIDTAELGDSWNYGESPERYPLDVGRLRGVIEEAARQSGWGGELPRGRARGIAAHYSFVTYVAVVIEVEVKDDGALLVHKATIAADCGPQINPERIRSQLEGACVMGLGLAALGEISFKDGKVQQDNFHQYELARMPLAPKAVSVHLLKPDGDLPLGGVGEPGVPPIAPALCNAIFAATGKRIRELPI,not soluble
10,MYVTVTEAAYKKIMDTIPSEAKYIKLFYDNEGCGCVMSGIIDLVAVAEKDERDVDIESSTMNFIADRTKLVFMDDKLTVDWHEGGGTFQLKSPSQFYNPNMKLHVRVLEHHHHHH,soluble
11,MDVVILDTGCANLSSVTYAVQRLGYTPVISRDPAVVLRADKLFMPGVGTAHAAMEQLRQRELIELIKSCTQPVLGICLGMQLLATSSEESGGITTLGMIDAPVKKMTDFGLPLPHMGWNQITAQAGNHLFRGIPDGTYFYFVHGYAMPICPNTIAQTNYGEPFTAAVEKDNFFGVQFHPERSGAAGAQLMKNFLEM,not soluble
12,MGHHHHHHSHMPESYWEKVSGKNIPSSLDLYPIIHNYLQEDDEILDIGCGSGKISLELASLGYSVTGIDINSEAIRLAETAARSPGLNQKTGGKAEFKVENASSLSFHDSSFDFAVMQAFLTSVPDPKERSRIIKEVFRVLKPGAYLYLVEFGQNWHLKLYRKRYLHDFPITKEEGSFLARDPETGETEFIAHHFTEKELVFLLTDCRFEIDYFRVKELETRTGNKILGFVIIAQKL,not soluble
13,MSLYTINIIPRVLHFKQPAGTSRGSYTTRNVWYIHLSSIECPGRVGVGECAPLPKLSCDDLPDYEQVLRSACQRLEQTGELDIESLRGYPSILFGLETALRHYETQSWALWDTPFSRGEVGIPINGLIWMGSFDRMLQQIEVKMQAGYRCIKLKIGAINFEEELALLRHIRAHYSAREIELRVDANGAFSPADAMDKLNRLAELDLHSIEQPIRAGQWEEMARLAAESPLPIALDEELIGCNALERKRELLAAIHPRYIILKPSLHGGISGGNEWIAEAEKQHIGWWITSALESNIGLNAIAQWCATFRNPLPQGLGTGLLFTDNVEMPLEIRKDCLWFCKEGHHHHHH,soluble
14,MIPPSLPAELKAALEQLLQGTQRADAATRAERISLNYRGGGTSAPITSEADALAYAGARMPATYAAVIACLNALTAIRPDFAPATLLDVGAGPGTASWAAAQAFESLQGFTLLDANPALRNLALRLTEARRLSAIDYRLGDAGKALADAPEVTLVIASYLINELGDAARASFADALWRKTSDTLLVVEPGTPAGYQRILQLRDRLIAQGAHVIAPCPHENACPLAAPDWCHFVQRLPRSKLHLQLKSADVPFEDEKFSYVALTRVPLPQRPARVLTQPEQTKAAITAKLCTPAGKLKLAVAARRDKPAYARFRRLDWGDALEAQADLEHHHHHH,not soluble
15,QLIFDDCVFAFSGPVHEDAYDRSALETVVQDHGGLVLDTGLRPLFNDPFKSKQKKLRHLKPQKRSKSWNQAFVVSDTFSRKVKYLEALAFNIPCVHPQFIKQCLKMNRVVDFSPYLLASGYSHRLDCTLSQRIEPFDTTDSLYDRLLARKGPLFGKKILFIIPEAKSWQKKIENTEQGQKALAHVYHALALGADVEIRPNVAHLECDLILTMDGNIVDETNCPVVDPEWIVECLISQSDIST,soluble
16,MIKTVVGSYPVVKGKPDSIPDKIKKFFGKYDKYEYSIKKALDDQLNVGIDILSDGQVRGDMVEIFVSNMYGFEGRRVVNRVEFVKPITLNDIKYSLKYISKKDPEKGVKGIITGACTLASSIRVENYYSDNKDENLIYDLAGALNKEALSIQNHVKMIQFDEPILSTGLYDLEVAKKAMDIITSGINVPVAMHVCGDVSKIFYKLNEFNVDILDHEFASCRKNLEILNEITKKVGFGCINTKLKSVDSVDEVKALISEGIEILKNNSKFEGSINDSVIIDPDCGMRLLPVDVAYSKLNNMVTAANEIEKDLILEHHHHHH,not soluble
17,MRVSLFLQKQIIECSKAFQPHSTRLQWPKSQDKVFVAMSGGVDSSFSAYLLKSQGYNVEGVFMRNWLDEDSAPSGCPAERDWATVQKVCKKLNISCRRFNFEKEYWNLVFEPSLDLYENGLTPNPDVSCNRQVKFGALFDALKKHCENNVKGDWWLASGHYAKSVVNIETNESHMCIPTDKRKDQTLFLCTIRKEALEKTIFPLHNWTKENVKKQASSAGFKEIAEKQESQGLCFVSPNVGRKFRKFLQRYLNFSDRPIKVIAGKNVVGEFSGNHGIWSLTVGERCGLSLPQAQSEYFGRWYVWKKDIKNNALYICRGTNNELLMSKCIYLKDWKWCGTKLQNLEKSALSCFVRVRHQQPLQPAKVTWRNPESVKIHFQDKQRAVTPGQVIAVYVNDVCLGGGMVDTVEPEKDFD,soluble
18,MYPLNIDGEELYLRDLKINDLPNLLKWYNNIDDFSLATGVYKPITLKEILERYFKCQSSSKDFFAGIYIRKSGEMIGVLKGWLDCEKDLSAWINSIIIDPGFQRKGYGSKTVNLFIRHVKECCNVKRVYLSVAEENFKGMSFWKQQSFREVKKISKDRDSVSKCKSIVIMCREI,not soluble
19,MQARKLAVDGAIEFTPRVFADDRGLLILPYQEEAFVEAHGGPLFRVAQTIHSMSKRGVVRGIHYTVTPPGTAKYVYCARGKAMDIVIDIRVGSPTFGQWDSVLMDQQDPRAVYLPVGVGHAFVALEDDTVFSYMASRSYVTQDELALSALDPALGLPIDIGVEPIVSDRDRVAITLAEAQRQGLLPDYTTSQEIERRLTAVPVST,soluble
20,MGSDKIHHHHHHMDWEDAPLPYKLYRNVPIIPLSLEIPLSLPNSSTTPTLNEIGHYLWCSFGLTQLCQLNSEKILFRRSIPSGGALYPNELYIYLKIDDYPDGIYHYDAAHHRLILIREGNFDSYLTEALGNRCNLQSCFGAAFVSTMFWKNFFKYNNFSYRLQGLDSGVLIGQLLECAKQFGYTNGVYFQFLDRAINHLLGLSEGEESVYAVLPFSTEPQTNWFHNDYREIKTVTSHELLQQIPPLAHEHFVRSKHVNEYPMITKINEASMIESTAQFQTLAHEEHFQHHAHAVQLPKVERLSYDFLQLCRKRYSPDADFILTKWDAAELATLLQEASLSFPYYNDLDGQYVNENARVSLYGCFYNVKDIENGAYSYNSKTHSIQPLRYGDLRYPLQSSMTMDNVNLFQVPLCLHVVGKKDYYTNALGYRGYRIHQMEAGILVHKLVFAATAMGMAGHPLLSFDTNSCDQLYGIEAGNETSLIQIPVGAYRARNWLKGALRN,not soluble
